Reference: doi:10.64898/2025.12.23.696152 (bioRxiv, 2025)
Several values for one entry are separate records, joined by “and”; a condition that tells them apart may be missing. Equal values may be shown once.

How the values were obtained:
[1] = target: KIF5C(ΔtailΔelbow)-mScarlet-Strep-tag II (human) (UniProt O60282); assay: mass photometry
[2] = target: KIF5C(Δtail)-mScarlet-Strep-tag II (human) (UniProt O60282); assay: mass photometry
[3] = target: Taxol-stabilized microtubules polymerised from pig brain tubulin (pig) (UniProt P02550); assay: TIRF single-molecule motility assay
mass photometry = target: the molecule itself; assay: mass photometry

## KIF5C(ΔtailΔelbow)-mScarlet-Strep-tag II (from UniProt O60282 1-914) (domain or fragment)
[1]
  percent of particles as dimer: 91%
  stoichiometry N: 2

## KIF5C(Δtail)-mScarlet-Strep-tag II (from UniProt O60282 1-914) (domain or fragment)
[2]
  percent of particles as dimer: 93%
  stoichiometry N: 2

B1: KIF5C-mScarlet-Strep-tag II (human KIF5C, full length) (natural protein)
chain: MADPAECSIKVMCRFRPLNEAEILRGDKFIPKFKGDETVVIGQGKPYVFDRVLPPNTTQEQVYNACAKQIVKDVLEGYNGTIFAYGQTSSGKTHTMEGKLHDPQLMGIIPRIAHDIFDHIYSMDENLEFHIKVSYFEIYLDKIRDLLDVSKTNLAVHEDKNRVPYVKGCTERFVSSPEEVMDVIDEGKANRHVAVTNMNEHSSRSHSIFLINIKQENVETEKKLSGKLYLVDLAGSEKVSKTGAEGAVLDEAKNINKSLSALGNVISALAEGTKTHVPYRDSKMTRILQDSLGGNCRTTIVICCSPSVFNEAETKSTLMFGQRAKTIKNTVSVNLELTAEEWKKKYEKEKEKNKTLKNVIQHLEMELNRWRNGEAVPEDEQISAKDQKNLEPCDNTPIIDNIAPVVAGISTEEKEKYDEEISSLYRQLDDKDDEINQQSQLAEKLKQQMLDQDELLASTRRDYEKIQEELTRLQIENEAAKDEVKEVLQALEELAVNYDQKSQEVEDKTRANEQLTDELAQKTTTLTTTQRELSQLQELSNHQKKRATEILNLLLKDLGEIGGIIGTNDVKTLADVNGVIEEEFTMARLYISKMKSEVKSLVNRSKQLESAQMDSNRKMNASERELAACQLLISQHEAKIKSLTDYMQNMEQKRRQLEESQDSLSEELAKLRAQEKMHEVSFQDKEKEHLTRLQDAEEMKKALEQQMESHREAHQKQLSRLRDEIEEKQKIIDEIRDLNQKLQLEQEKLSSDYNKLKIEDQEREMKLEKLLLLNDKREQAREDLKGLEETVSRELQTLHNLRKLFVQDLTTRVKKSVELDNDDGGGSAAQKQKISFLENNLEQLTKVHKQLVRDNADLRCELPKLEKRLRATAERVKALESALKEAKENAMRDRKRYQQEVDRIKEAVRAKNMARRAHSAQIAKPIRPGHYPASSPTAVHAIRGGGGSSSNSTHYQK
[3]
  landing rate (molecules/μm/s): 0.011 and 0.0047
Mass photometry
  stoichiometry N: 2 and 4

B2: KIF5C-Strep-tag II (natural protein)
chain: MADPAECSIKVMCRFRPLNEAEILRGDKFIPKFKGDETVVIGQGKPYVFDRVLPPNTTQEQVYNACAKQIVKDVLEGYNGTIFAYGQTSSGKTHTMEGKLHDPQLMGIIPRIAHDIFDHIYSMDENLEFHIKVSYFEIYLDKIRDLLDVSKTNLAVHEDKNRVPYVKGCTERFVSSPEEVMDVIDEGKANRHVAVTNMNEHSSRSHSIFLINIKQENVETEKKLSGKLYLVDLAGSEKVSKTGAEGAVLDEAKNINKSLSALGNVISALAEGTKTHVPYRDSKMTRILQDSLGGNCRTTIVICCSPSVFNEAETKSTLMFGQRAKTIKNTVSVNLELTAEEWKKKYEKEKEKNKTLKNVIQHLEMELNRWRNGEAVPEDEQISAKDQKNLEPCDNTPIIDNIAPVVAGISTEEKEKYDEEISSLYRQLDDKDDEINQQSQLAEKLKQQMLDQDELLASTRRDYEKIQEELTRLQIENEAAKDEVKEVLQALEELAVNYDQKSQEVEDKTRANEQLTDELAQKTTTLTTTQRELSQLQELSNHQKKRATEILNLLLKDLGEIGGIIGTNDVKTLADVNGVIEEEFTMARLYISKMKSEVKSLVNRSKQLESAQMDSNRKMNASERELAACQLLISQHEAKIKSLTDYMQNMEQKRRQLEESQDSLSEELAKLRAQEKMHEVSFQDKEKEHLTRLQDAEEMKKALEQQMESHREAHQKQLSRLRDEIEEKQKIIDEIRDLNQKLQLEQEKLSSDYNKLKIEDQEREMKLEKLLLLNDKREQAREDLKGLEETVSRELQTLHNLRKLFVQDLTTRVKKSVELDNDDGGGSAAQKQKISFLENNLEQLTKVHKQLVRDNADLRCELPKLEKRLRATAERVKALESALKEAKENAMRDRKRYQQEVDRIKEAVRAKNMARRAHSAQIAKPIRPGHYPASSPTAVHAIRGGGGSSSNSTHYQK
Mass photometry
  stoichiometry N: 4 and 2

B3: KIF5C(Δelbow)-mScarlet-Strep-tag II (natural protein)
chain: MADPAECSIKVMCRFRPLNEAEILRGDKFIPKFKGDETVVIGQGKPYVFDRVLPPNTTQEQVYNACAKQIVKDVLEGYNGTIFAYGQTSSGKTHTMEGKLHDPQLMGIIPRIAHDIFDHIYSMDENLEFHIKVSYFEIYLDKIRDLLDVSKTNLAVHEDKNRVPYVKGCTERFVSSPEEVMDVIDEGKANRHVAVTNMNEHSSRSHSIFLINIKQENVETEKKLSGKLYLVDLAGSEKVSKTGAEGAVLDEAKNINKSLSALGNVISALAEGTKTHVPYRDSKMTRILQDSLGGNCRTTIVICCSPSVFNEAETKSTLMFGQRAKTIKNTVSVNLELTAEEWKKKYEKEKEKNKTLKNVIQHLEMELNRWRNGEAVPEDEQISAKDQKNLEPCDNTPIIDNIAPVVAGISTEEKEKYDEEISSLYRQLDDKDDEINQQSQLAEKLKQQMLDQDELLASTRRDYEKIQEELTRLQIENEAAKDEVKEVLQALEELAVNYDQKSQEVEDKTRANEQLTDELAQKTTTLTTTQRELSQLQELSNHQKKRATEILNLLLKDLGEIGGIIGTNDVKTLADVNGVIEEEFTMARLYISKMKSEVKSLVNRSKQLESAQMDSNRKMNASERELAACQLLISQHEAKIKSLTDYMQNMEQKRRQLEESQDSLSEELAKLRAQLQDAEEMKKALEQQMESHREAHQKQLSRLRDEIEEKQKIIDEIRDLNQKLQLEQEKLSSDYNKLKIEDQEREMKLEKLLLLNDKREQAREDLKGLEETVSRELQTLHNLRKLFVQDLTTRVKKSVELDNDDGGGSAAQKQKISFLENNLEQLTKVHKQLVRDNADLRCELPKLEKRLRATAERVKALESALKEAKENAMRDRKRYQQEVDRIKEAVRAKNMARRAHSAQIAKPIRPGHYPASSPTAVHAIRGGGGSSSNSTHYQK
Mass photometry
  stoichiometry N: 4

B4: KIF5C(Δelbow)-Strep-tag II (natural protein)
chain: MADPAECSIKVMCRFRPLNEAEILRGDKFIPKFKGDETVVIGQGKPYVFDRVLPPNTTQEQVYNACAKQIVKDVLEGYNGTIFAYGQTSSGKTHTMEGKLHDPQLMGIIPRIAHDIFDHIYSMDENLEFHIKVSYFEIYLDKIRDLLDVSKTNLAVHEDKNRVPYVKGCTERFVSSPEEVMDVIDEGKANRHVAVTNMNEHSSRSHSIFLINIKQENVETEKKLSGKLYLVDLAGSEKVSKTGAEGAVLDEAKNINKSLSALGNVISALAEGTKTHVPYRDSKMTRILQDSLGGNCRTTIVICCSPSVFNEAETKSTLMFGQRAKTIKNTVSVNLELTAEEWKKKYEKEKEKNKTLKNVIQHLEMELNRWRNGEAVPEDEQISAKDQKNLEPCDNTPIIDNIAPVVAGISTEEKEKYDEEISSLYRQLDDKDDEINQQSQLAEKLKQQMLDQDELLASTRRDYEKIQEELTRLQIENEAAKDEVKEVLQALEELAVNYDQKSQEVEDKTRANEQLTDELAQKTTTLTTTQRELSQLQELSNHQKKRATEILNLLLKDLGEIGGIIGTNDVKTLADVNGVIEEEFTMARLYISKMKSEVKSLVNRSKQLESAQMDSNRKMNASERELAACQLLISQHEAKIKSLTDYMQNMEQKRRQLEESQDSLSEELAKLRAQLQDAEEMKKALEQQMESHREAHQKQLSRLRDEIEEKQKIIDEIRDLNQKLQLEQEKLSSDYNKLKIEDQEREMKLEKLLLLNDKREQAREDLKGLEETVSRELQTLHNLRKLFVQDLTTRVKKSVELDNDDGGGSAAQKQKISFLENNLEQLTKVHKQLVRDNADLRCELPKLEKRLRATAERVKALESALKEAKENAMRDRKRYQQEVDRIKEAVRAKNMARRAHSAQIAKPIRPGHYPASSPTAVHAIRGGGGSSSNSTHYQK
Mass photometry
  percent of particles as dimer: 13%
  percent of particles as tetramer: 62%
  stoichiometry N: 2 and 4
